Measurements published in paper PMC7664933, “Enzyme Properties of a Laccase Obtained from the Transcriptome of the Marine-Derived Fungus Stemphylium lucomagnoense” (International Journal of Molecular Sciences, 2020).

Experiments:
Assay in all cases: spectrophotometric oxidation assay, Michaelis-Menten fit
Type in all cases: biochemical, Stemphylium lucomagnoense
[1] = substrate: CCn1c(=NN=c2sc3cc(S(=O)(=O)O)ccc3n2CC)sc2cc(S(=O)(=O)O)ccc21; settings: 50 mM sodium acetate, pH 4.0, 30 °C, free enzyme, pH 4.0
From the text: (§1) spectrophotometric oxidation assay, Michaelis-Menten fit on SlLac2

[2] = substrate: COc1cc(C=NN=Cc2cc(OC)c(O)c(OC)c2)cc(OC)c1O; settings: 50 mM sodium acetate, pH 6.0, 30 °C, free enzyme, pH 6.0
From the text: as §1

[3] = substrate: COc1cccc(OC)c1O; settings: 50 mM sodium acetate, pH 5.0, 30 °C, free enzyme, pH 5.0
From the text: as §1

B1: SlLac2 (Stemphylium lucomagnoense) (protein)
chain: AVLPVELPNPAPFTPKRDGLEERQSPASCINVGHTPKTRHCWAQGFTSSTDMYTSWPNTGVIRSYNLRLENTTCNPDGAGSRVCLLINGRFLGPTIVANWGDTIRVTVRNNLQSNGTSIHWHGFRMLNKNIQDGVNGITECALAPGDFKTYQFQATEYGTTWYHSHFSHQYGDGVVGTVIVNGPATANYDEDLGVMPITDWYYNTAFQAASIAFQNGQAGLGPPVGDNILINGTAKNAAGGGAWNRVTIQAGKRYRLRLVNTAVDTNMLVNLDGHPFQVIATDFVPINPYNTTHLQIGIGQRYDVIINANQTAGNYWFRATADGLCQSRNAREGRAIFTYQGQPVADPTSTAPTVPFTACLDPVTTPKIVKNVPSSTFAAQAKNLPVAFGPVAANGNTVLWTINGTSMIIDPGKPTIKYVAENNNSFPQSYNVVKVPATSASTWTYWVIQQAVGAPPIAHPIHLHGHDSYILGAGDGQFNAATHFSQLRFTNPPRRDVSQLKGNGWLVIAYPTDNPGAWLMHCHIAFHVGMGLSVQFLERKQQIVLPATGSEWYNNCNNWAAYKAGNTDVWPQDDSGLKKRWPPLIEDGSVL
notes: full-length mature laccase (592 residues; precursor 613 with 21-residue signal peptide replaced by A. niger glucoamylase 24-residue prepropeptide, correctly cleaved off); codon-optimised synthetic gene; secreted from Aspergillus niger D15#26; no tag; N-glycosylated, about 75 kDa by SDS-PAGE
Km [1]: 20.6 ± 3.9 µM
kcat [1]: 0.153 ± 0.0026 s⁻¹
kcat/Km [1]: 7420 M⁻¹ s⁻¹
Km [2]: 3.5 ± 0.57 µM
kcat [2]: 0.0074 ± 0.0002 s⁻¹
kcat/Km [2]: 2110 M⁻¹ s⁻¹
Km [3]: 24 ± 3.9 µM
kcat [3]: 0.0059 ± 0.0003 s⁻¹
kcat/Km [3]: 240 M⁻¹ s⁻¹
